Results taken from patent publication US20240294622A1 (SUZHOU TRANSCENTA THERAPEUTICS, published 2024).

How the values were obtained:
[1] = target: T1, HGREM1-His (ACRO) (human, UniProt O60565 25-184); assay: competition ELISA, Gremlin-his 0.25 ug/ml binding to coated FGFR1-Fc
T1 construct: Lys25-Asp184 of NP_037504 with C-terminal polyhistidine tag (ACRO GR1-H52H3); they are put here; also called hGREM1 (ACRO); human gremlin (ACRO)
T1 sequence: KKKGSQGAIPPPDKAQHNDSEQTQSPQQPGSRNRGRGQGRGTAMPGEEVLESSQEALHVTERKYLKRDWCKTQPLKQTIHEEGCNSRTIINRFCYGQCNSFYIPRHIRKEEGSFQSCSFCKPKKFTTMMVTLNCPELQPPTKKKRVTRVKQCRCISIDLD
Description: Next, 0.25 μg/ml of gremlin was selected to test the blocking activity. The ability of antibodies to block Gremlin binding to human FGFR1-Fc was examined via ELISA. Plates were coated with recombinant FGFR1-Fc (2 μg/ml) overnight and then serial dilutions of antibodies were incubated with 0.25 μg/ml of human Gremlin-his modified for 1 h at RT before this complex was added to coated plates and allowed to incubate for an additional hour at RT. The plates were then washed and added with anti-his HRP (GenScript). Plates were then developed with a TMB solution and stopped by adding stop solution. The plates were read on a plate reader at 450 nm. […] Humanized anti-GREM1 antibodies provided herein (e.g., Hu14E3, Hu22F1) are expected to show the similar technical effect as their chimeric counterparts in blocking the binding of hGREM1 to FGFR1.

[2] = target: T2, DAN-his (Sinobiological) (human, UniProt P41271 17-181, limits assumed); assay: ELISA on coated DAN-his; unit from the axis Ab(nM); panel called FIG. 19C in the text
T2 construct: also called DAN (Sinobiological); human DAN-his
T2 sequence (looked up): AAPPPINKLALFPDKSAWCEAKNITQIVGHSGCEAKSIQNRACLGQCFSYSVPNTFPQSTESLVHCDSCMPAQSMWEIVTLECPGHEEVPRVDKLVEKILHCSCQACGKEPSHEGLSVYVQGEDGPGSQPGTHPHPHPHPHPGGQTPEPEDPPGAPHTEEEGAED
Description: (§1) Clear polystyrene plates (BEAVER) were coated with 100 μl/well of a 0.5 μg/ml human gremlin (ACRO) and DAN (Sinobiological) in high pH coating buffer overnight at 4° C. Then the plates were washed once on an automatic plate washer using PBS+0.1% Tween 20 (Sigma). 100 μl of block solution consisting of PBS+1% BSA+1% normal goat serum+0.5% Tween 20 (Sigma) was added to each well and incubated at room temperature for 2 hours. Then 100 ul of antibodies (hybridoma or chimeric antibody 36F5, chimeric antibody 67G11, chimeric antibody 42B9) in antibody dilution buffer containing PBS+1% BSA+1% normal goat serum+0.01% Tween 20 starting from 2 μg/ml (13.33 nM) and then 4 fold serial dilution were added to each well of the plate and incubated for 1 hours at room temperature. Afterward the plates were washed three times with 200 ul of PBS+0.1% Tween20 followed by adding 100 μl/well 1:10000 Goat anti mouse IgG-HRP or mouse anti-human IgG-HRP (abcam), and incubate for 1 hour at room temperature. They were then washed 3× with PBS+0.1% Tween20. Finally, 100 μl/well of TMB (InnoReagents) was added to each well and after 2 minutes add 50 ul of stop solution to each well. The plates were read on a Multiscan FC microplate reader (Thermo Scientific) at 450 nm.

[3] = target: T1, HGREM1-His (ACRO); assay: ELISA on coated human Gremlin-his; unit from the axis Ab(nM); panel called FIG. 19C in the text
Description: as §1

[4] = target: T2, DAN-his (Sinobiological); assay: ELISA on coated DAN-his; unit from the axis label Ab(ug/ml), the table prints none
Description: as §1

[5] = target: T1, HGREM1-His (ACRO); assay: ELISA on coated Gremlin-his; unit from the axis label Ab(ug/ml), the table prints none
Description: as §1

[6] = target: T2, DAN-his (Sinobiological); assay: blocking ELISA: coated BMP2, antibody pre-incubated with human DAN-his, anti-his HRP; blocked ligand BMP2; unit from the axis Concentration(nM)
Description: (§2) Plates were coated with recombinant human BMP2/4 (0.5 μg/ml) overnight. Then the plates were washed once on an automatic plate washer using PBS+0.1% Tween 20 (Sigma). 100 μl of block solution consisting of PBS+1% BSA+1% normal goat serum+0.5% Tween 20 (Sigma) was added to each well and incubated at room temperature for 2 hours. Then the plates were washed three 3 times. Then 55 ul serial dilutions of chimeric antibodies 36F5 and 55 ul […] of human DAN-his in dilution buffer containing PBS+1% BSA+1% normal goat serum+0.01% Tween 20 separately were mixed and incubated for 1 h at RT before 100 ul of this complex was added to coated plates and allowed to incubate for an additional hour at room temperature. The plates were then washed 3 times and added with 100 ul of anti-his HRP (GenScript) in dilution buffer. Plates were then developed with a TMB solution and stopped by adding stop solution. After wash three times with wash buffer, the plates were read on a plate reader at 450 nm. Also, consistent with previous result, besides blocking gremlin activity, 36F5 could block BMP2/4 binding to DAN protein. (FIGS. 20A and 20B).

[7] = target: T2, DAN-his (Sinobiological); assay: blocking ELISA: coated BMP4, antibody pre-incubated with human DAN-his, anti-his HRP; blocked ligand BMP4; unit from the axis Concentration(nM) [Continued]
Description: as §2

B1: chimeric antibody 36F5 (36F5-chi) (antibody, human IgG1, V domains shown)
VH: QVQLQQSGAELARPGASVKLSCKASGYSFTSSGIGWVKQRSGQGLEWIGEIYPRSGNTYNNEKFKGKATLTADKSSSTVYMELRSLTSEDSAVYFCVREAYSHHYYAMDYWGQGTSVTVFS
VL: DVLMTQTPLSLPVSLGGQASISCRSSQSLLHSNGNTYLEWYLQKPGQSPKLLIYKVSNRFSGVPDRLSGSGSGTDFTLKISRVEAEDLGVYYCFQGSHVPFTFGSGTKLEIN
notes: also called chimeric 36F5
B1 was tested, and the IC50 [1] was 1.37 nM, the EC50 [2] was 0.0211 nM and the EC50 [3] was 0.0183 nM. For the same binder, the EC50 [4] was 0.02 µg/mL, the EC50 [5] was 0.0238 µg/mL and the IC50 [6] was 3.29 nM. The IC50 [7] was 3.93 nM.
